Assay results published in the supplement of paper PMC9112550, “Optimization of the antimicrobial peptide Bac7 by deep mutational scanning” (BMC Biology, 2022).

The sequences below were run on Escherichia coli TOP10 (assay: shrunken log2 fold change of peptide-encoding DNA abundance (4.5 h post-induction vs induction); higher = less antimicrobial activity (less host growth inhibition)). Conditions: time post-induction: 4.5 h; library: site-saturation at positions 5, 18, 19, 20.
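Further: peptides expressed intracellularly from a pBAD plasmid library in pooled LB shake-flask culture, induced with 0.3% L-arabinose, DNA abundance read by NGS, three biological replicates, DESeq2 with apeglm shrinkage.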

Sequence	shrunken log2 fold change
RRIRYRPPRLPRPRPRPLKQPRP	-0.0485
RRIRIRPPRLPRPRPRPFMAPRP	-0.397
RRIRERPPRLPRPRPRPWREPRP	0.127
RRIRRRPPRLPRPRPRPLEMPRP	0.181
RRIRKRPPRLPRPRPRPYGRPRP	-0.0362
RRIRMRPPRLPRPRPRPREMPRP	0.657
RRIRVRPPRLPRPRPRPPFMPRP	1.97
RRIRHRPPRLPRPRPRPDEIPRP	-0.137
RRIRNRPPRLPRPRPRPHAHPRP	-0.0247
RRIRRRPPRLPRPRPRPDVEPRP	0.0547
RRIRFRPPRLPRPRPRPGKQPRP	0.0463
RRIRSRPPRLPRPRPRPVNIPRP	-0.261
RRIRWRPPRLPRPRPRPNVLPRP	-0.0626
RRIRKRPPRLPRPRPRPRYSPRP	-0.705
RRIRPRPPRLPRPRPRPEDTPRP	0.174
RRIRCRPPRLPRPRPRPTHAPRP	0.975
RRIRKRPPRLPRPRPRPTYAPRP	0.431
RRIRWRPPRLPRPRPRPCLLPRP	-0.188
RRIRLRPPRLPRPRPRPKWRPRP	0.39
RRIRLRPPRLPRPRPRPGGTPRP	-0.0425
RRIRMRPPRLPRPRPRPTNQPRP	0.279
RRIRERPPRLPRPRPRPMILPRP	-0.388
RRIRNRPPRLPRPRPRPYMFPRP	-0.216
RRIRLRPPRLPRPRPRPAFWPRP	0.292
RRIRQRPPRLPRPRPRPNSRPRP	-0.0312

Sequence	shrunken log2 fold change
RRIRFRPPRLPRPRPRPIVIPRP	-0.205
RRIRIRPPRLPRPRPRPWQKPRP	0.0223
RRIRCRPPRLPRPRPRPLIKPRP	-0.311
RRIRGRPPRLPRPRPRPHMGPRP	0.121
RRIRYRPPRLPRPRPRPDRPPRP	-0.215
RRIRPRPPRLPRPRPRPWSNPRP	-0.52
RRIRIRPPRLPRPRPRPHYAPRP	-0.121
RRIRYRPPRLPRPRPRPQSSPRP	-0.687
RRIRFRPPRLPRPRPRPNQQPRP	-0.0474
RRIRVRPPRLPRPRPRPASCPRP	-0.0873
RRIRCRPPRLPRPRPRPHLVPRP	0.565
RRIRHRPPRLPRPRPRPTAFPRP	-0.00502
RRIRLRPPRLPRPRPRPHVFPRP	-0.0592
RRIRRRPPRLPRPRPRPTMYPRP	0.0102
RRIRRRPPRLPRPRPRPKHRPRP	0.376
RRIRVRPPRLPRPRPRPAGDPRP	0.778
RRIRMRPPRLPRPRPRPSIGPRP	-0.00737
RRIRWRPPRLPRPRPRPYFKPRP	-0.839
RRIRLRPPRLPRPRPRPPFWPRP	0.308
RRIRPRPPRLPRPRPRPFCQPRP	-0.257
RRIRTRPPRLPRPRPRPANNPRP	-0.736
RRIRARPPRLPRPRPRPWQDPRP	0.0326
RRIRHRPPRLPRPRPRPTCSPRP	0.0782
RRIRDRPPRLPRPRPRPKRAPRP	-0.0273
RRIRRRPPRLPRPRPRPLSLPRP	-0.203

Sequence	shrunken log2 fold change
RRIRDRPPRLPRPRPRPNHRPRP	-0.346
RRIRPRPPRLPRPRPRPDRFPRP	-0.137
RRIRMRPPRLPRPRPRPLSQPRP	0.0295
RRIRERPPRLPRPRPRPQEVPRP	-0.0156
RRIRNRPPRLPRPRPRPIVSPRP	-0.00673
RRIRKRPPRLPRPRPRPYFFPRP	0.168
RRIRPRPPRLPRPRPRPWWAPRP	0.00677
RRIRNRPPRLPRPRPRPQPAPRP	0.0618
RRIRGRPPRLPRPRPRPAFLPRP	0.367
RRIRGRPPRLPRPRPRPLFPPRP	0.406
RRIRSRPPRLPRPRPRPHCSPRP	-0.686
RRIRTRPPRLPRPRPRPAMFPRP	-0.686
RRIRIRPPRLPRPRPRPTVCPRP	0.312
RRIRQRPPRLPRPRPRPTFNPRP	-0.201
RRIRERPPRLPRPRPRPHCGPRP	-0.333
RRIRWRPPRLPRPRPRPTFIPRP	-0.417
RRIRVRPPRLPRPRPRPSTEPRP	-0.331
RRIRDRPPRLPRPRPRPVVDPRP	0.104
RRIRARPPRLPRPRPRPNLIPRP	1.17
RRIRHRPPRLPRPRPRPTCHPRP	-0.647
RRIRIRPPRLPRPRPRPYRAPRP	-0.77
RRIRQRPPRLPRPRPRPDYSPRP	-0.0839
RRIRQRPPRLPRPRPRPGHLPRP	-0.0699
RRIRQRPPRLPRPRPRPMYAPRP	0.151
RRIRGRPPRLPRPRPRPTLYPRP	0.598
